Results: paper doi:10.1101/2022.01.09.475567

Molecular target: NP:WT-C-His (nucleoprotein) (Influenza A virus A/Puerto Rico/8/1934 …, UniProt P03466 1-498)
Test: BLI

Chain of NP:WT-C-His (nucleoprotein) (P03466 whole entry): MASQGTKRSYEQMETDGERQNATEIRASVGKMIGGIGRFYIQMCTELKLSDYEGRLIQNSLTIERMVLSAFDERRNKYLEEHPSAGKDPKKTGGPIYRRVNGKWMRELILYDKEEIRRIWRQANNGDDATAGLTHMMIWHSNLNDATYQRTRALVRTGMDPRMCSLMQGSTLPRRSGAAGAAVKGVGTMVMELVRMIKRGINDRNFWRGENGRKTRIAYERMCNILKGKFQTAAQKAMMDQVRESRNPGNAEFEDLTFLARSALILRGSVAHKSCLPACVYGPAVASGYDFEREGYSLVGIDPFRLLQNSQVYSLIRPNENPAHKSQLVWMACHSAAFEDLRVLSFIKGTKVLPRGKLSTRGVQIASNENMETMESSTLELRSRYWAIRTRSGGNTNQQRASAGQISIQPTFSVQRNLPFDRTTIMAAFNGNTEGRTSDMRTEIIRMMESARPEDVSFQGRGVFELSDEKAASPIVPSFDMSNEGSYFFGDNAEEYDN

B1: 24nt ssRNA (ssRNA)
RNA: UUUGUUACACACACACACGCUGUG
Kd: 2.48 ± 0.091 nM
